Results taken from paper PMC4729865 (Nature Communications, 2016).

T1: MBP-Cep57 (1–242 amino acids) (human, UniProt Q86XR8 1-242)
T1 construct: also called MBP-Cep57N; source: E. coli BL21, purified (Amylose Magnetic beads); not shown: MBP, N-terminal, kept
T1 sequence (looked up): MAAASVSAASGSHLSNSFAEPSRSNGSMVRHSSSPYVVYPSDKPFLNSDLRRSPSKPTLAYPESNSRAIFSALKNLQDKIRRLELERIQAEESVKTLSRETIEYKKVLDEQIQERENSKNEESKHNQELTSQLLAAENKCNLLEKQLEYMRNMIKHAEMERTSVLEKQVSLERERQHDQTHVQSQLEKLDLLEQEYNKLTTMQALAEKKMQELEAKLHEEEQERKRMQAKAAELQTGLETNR

T2: Flag-Mad1 (human, UniProt Q9Y6D9 1-718)
T2 construct: Mad1, human; cDNA amplified from a HeLa cell cDNA library; also called Flag-Mad1 (FL); source: HEK293T, purified (anti-Flag beads, 600 mM NaCl wash, eluted by 3 x Flag peptides); not shown: Flag, N-terminal, kept
T2 sequence (looked up): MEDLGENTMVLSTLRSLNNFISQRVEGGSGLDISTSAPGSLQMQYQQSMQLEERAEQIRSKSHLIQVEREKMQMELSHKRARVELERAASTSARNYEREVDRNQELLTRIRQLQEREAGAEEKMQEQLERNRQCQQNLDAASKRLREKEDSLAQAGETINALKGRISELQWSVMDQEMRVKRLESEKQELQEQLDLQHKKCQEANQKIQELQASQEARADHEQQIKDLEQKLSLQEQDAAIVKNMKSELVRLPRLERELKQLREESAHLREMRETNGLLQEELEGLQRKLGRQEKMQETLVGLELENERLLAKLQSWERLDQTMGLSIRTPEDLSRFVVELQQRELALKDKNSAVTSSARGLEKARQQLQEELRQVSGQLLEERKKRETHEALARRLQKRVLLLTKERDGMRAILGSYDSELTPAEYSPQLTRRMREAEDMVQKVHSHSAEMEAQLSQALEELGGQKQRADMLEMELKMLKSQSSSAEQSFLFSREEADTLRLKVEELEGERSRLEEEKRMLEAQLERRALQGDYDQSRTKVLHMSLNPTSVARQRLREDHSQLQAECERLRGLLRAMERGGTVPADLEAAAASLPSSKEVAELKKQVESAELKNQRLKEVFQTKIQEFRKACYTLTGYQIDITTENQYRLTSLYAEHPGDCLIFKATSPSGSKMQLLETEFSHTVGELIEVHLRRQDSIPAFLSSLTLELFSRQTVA

T3: Mad1-GFP (human, UniProt Q9Y6D9 1-718)
T3 construct: Mad1, human; cDNA amplified from a HeLa cell cDNA library; not shown: GFP, C-terminal, kept
T3 sequence (looked up): T2 sequence (looked up)

T4: GST-Mad1 (176–718 amino acids) (human, UniProt Q9Y6D9 176-718)
T4 construct: source: E. coli BL21, purified (Glutathione Sepharose 4B, eluted by glutathione); not shown: GST, N-terminal, kept
T4 sequence (looked up): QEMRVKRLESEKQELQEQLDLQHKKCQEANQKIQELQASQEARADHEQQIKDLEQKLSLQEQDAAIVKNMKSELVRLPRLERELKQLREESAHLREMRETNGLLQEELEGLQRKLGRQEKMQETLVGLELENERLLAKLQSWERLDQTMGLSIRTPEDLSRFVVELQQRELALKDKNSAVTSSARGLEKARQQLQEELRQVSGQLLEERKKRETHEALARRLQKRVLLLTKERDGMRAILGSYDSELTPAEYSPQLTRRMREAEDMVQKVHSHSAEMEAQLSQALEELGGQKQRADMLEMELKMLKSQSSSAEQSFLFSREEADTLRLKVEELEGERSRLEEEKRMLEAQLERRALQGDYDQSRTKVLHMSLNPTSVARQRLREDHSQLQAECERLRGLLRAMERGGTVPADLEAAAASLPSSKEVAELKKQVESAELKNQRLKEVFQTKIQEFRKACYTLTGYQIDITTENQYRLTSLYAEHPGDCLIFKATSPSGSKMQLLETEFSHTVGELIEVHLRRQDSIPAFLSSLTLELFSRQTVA

B1: GST-Mis12 (natural protein, human, UniProt Q9H081 1-205, looked up)
chain: MSVDPMTYEAQFFGFTPQTCMLRIYIAFQDYLFEVMQAVEQVILKKLDGIPDCDISPVQIRKCTEKFLCFMKGHFDNLFSKMEQLFLQLILRIPSNILLPEDKCKETPYSEEDFQHLQKEIEQLQEKYKTELCTKQALLAELEEQKIVQAKLKQTLTFFDELHNVGRDHGTSDFRESLVSLVQNSRKLQNIRDNVEKESKRLKIS
notes: Mis12, human; cDNA amplified from a HeLa cell cDNA library; also called Mis12 from bacteria; WT GST-Mis12; source: E. coli BL21, purified (Glutathione Sepharose 4B, eluted by glutathione); not shown: GST, N-terminal, kept
B2: GST-Cep57 (195–500 amino acids) (domain or fragment, human, UniProt Q86XR8 195-500, looked up)
chain: EYNKLTTMQALAEKKMQELEAKLHEEEQERKRMQAKAAELQTGLETNRLIFEDKATPCVPNARRIKKKKSKPPEKKSSRNYFGAQPHYRLCLGDMPFVAGKSTSPSHAVVANVQLVLHLMKQHSKALCNDRVINSIPLAKQVSSRGGKSKKLSVTPPSSNGINEELSEVLQTLQDEFGQMSFDHQQLAKLIQESPTVELKDKLECELEALVGRMEAKANQITKVRKYQAQLEKQKLEKQKKELKATKKTLDEERNSSSRSGITGTTNKKDFMKLRPGEKRRKNLQLLKDMQSIQNSLQSSSLCWDY
notes: also called C terminus of Cep57; C-terminal Cep57; source: E. coli, purified (Glutathione Sepharose 4B); not shown: GST, N-terminal, kept
B3: Flag-Cep57 (natural protein, human, UniProt Q86XR8 1-500, looked up)
chain: MAAASVSAASGSHLSNSFAEPSRSNGSMVRHSSSPYVVYPSDKPFLNSDLRRSPSKPTLAYPESNSRAIFSALKNLQDKIRRLELERIQAEESVKTLSRETIEYKKVLDEQIQERENSKNEESKHNQELTSQLLAAENKCNLLEKQLEYMRNMIKHAEMERTSVLEKQVSLERERQHDQTHVQSQLEKLDLLEQEYNKLTTMQALAEKKMQELEAKLHEEEQERKRMQAKAAELQTGLETNRLIFEDKATPCVPNARRIKKKKSKPPEKKSSRNYFGAQPHYRLCLGDMPFVAGKSTSPSHAVVANVQLVLHLMKQHSKALCNDRVINSIPLAKQVSSRGGKSKKLSVTPPSSNGINEELSEVLQTLQDEFGQMSFDHQQLAKLIQESPTVELKDKLECELEALVGRMEAKANQITKVRKYQAQLEKQKLEKQKKELKATKKTLDEERNSSSRSGITGTTNKKDFMKLRPGEKRRKNLQLLKDMQSIQNSLQSSSLCWDY
notes: Cep57 (translokin), human; cDNA amplified from a HeLa cell cDNA library; also called purified Cep57 from HEK293T cells; source: HEK293T, purified (anti-Flag beads, 600 mM NaCl wash, eluted by 3 x Flag peptides); not shown: Flag, N-terminal, kept
B4: MBP-Cep57 (151–500 amino acids) (domain or fragment, human, UniProt Q86XR8 151-500, looked up)
chain: RNMIKHAEMERTSVLEKQVSLERERQHDQTHVQSQLEKLDLLEQEYNKLTTMQALAEKKMQELEAKLHEEEQERKRMQAKAAELQTGLETNRLIFEDKATPCVPNARRIKKKKSKPPEKKSSRNYFGAQPHYRLCLGDMPFVAGKSTSPSHAVVANVQLVLHLMKQHSKALCNDRVINSIPLAKQVSSRGGKSKKLSVTPPSSNGINEELSEVLQTLQDEFGQMSFDHQQLAKLIQESPTVELKDKLECELEALVGRMEAKANQITKVRKYQAQLEKQKLEKQKKELKATKKTLDEERNSSSRSGITGTTNKKDFMKLRPGEKRRKNLQLLKDMQSIQNSLQSSSLCWDY
notes: Cep57, human, residues 151-500; source: E. coli BL21, purified (Amylose Magnetic beads); not shown: MBP, N-terminal, kept

Experiments:
Conditions in all cases: both partners purified
Flag-Cep57 = target: B3; assay: co-IP; purified proteins incubated together, immunoprecipitated with anti-Flag or anti-GFP antibody, western blotting
[1] = target: T1, MBP-Cep57 (1–242 amino acids); assay: pull-down; about 0.2 μg MBP-Cep57 fragment coupled to Amylose Magnetic beads incubated with about 0.2 μg purified, eluted GST-tagged protein; washed five times with lysis buffer; western blotting with anti-GST
Flag-Mad1 = target: T2, Flag-Mad1; assay: co-IP; purified proteins incubated together, immunoprecipitated with anti-Flag or anti-GFP antibody, western blotting
Mad1-GFP = target: T3, Mad1-GFP; assay: as above
[2] = target: T4, GST-Mad1 (176–718 amino acids); assay: pull-down; about 0.2 μg MBP-Cep57 fragment coupled to Amylose Magnetic beads incubated with about 0.2 μg purified, eluted GST-tagged protein; washed five times with lysis buffer; western blotting with anti-GST

Binder: B1
binding result (Flag-Cep57): binds | binding result [1]: binds

Binder: B2
binding result (Flag-Mad1): binds

Binder: B3
binding result (Mad1-GFP): binds

Binder: B4
binding result [2]: binds
